Reference: patent publication US20070071744A1
“And” between values parts separate entries of the source, which are not always exact repeats. Equal values may be shown once.

Legend:
peptide 7 (human) = biological target: T1, peptide 7 (human); experiment: PepSpot peptide array, control incubation
T1 sequence (peptide, N-terminus acetylated): LCLGRVPAQSGPL

peptide 117 (human) = biological target: T2, peptide 117 (human); experiment: PepSpot peptide array, control incubation
T2 sequence (peptide, N-terminus acetylated): SFTNKVFTTETSR

peptide 118 (human) = biological target: T3, peptide 118 (human); experiment: PepSpot peptide array, control incubation
T3 sequence (peptide, N-terminus acetylated): TNKVFTTETSRSI

[1] = biological target: mouse GPVI on mouse platelets (mouse) (UniProt P0C191); experiment: cell-based or functional assay
Chain of mouse GPVI on mouse platelets (mouse) (P0C191 22-313): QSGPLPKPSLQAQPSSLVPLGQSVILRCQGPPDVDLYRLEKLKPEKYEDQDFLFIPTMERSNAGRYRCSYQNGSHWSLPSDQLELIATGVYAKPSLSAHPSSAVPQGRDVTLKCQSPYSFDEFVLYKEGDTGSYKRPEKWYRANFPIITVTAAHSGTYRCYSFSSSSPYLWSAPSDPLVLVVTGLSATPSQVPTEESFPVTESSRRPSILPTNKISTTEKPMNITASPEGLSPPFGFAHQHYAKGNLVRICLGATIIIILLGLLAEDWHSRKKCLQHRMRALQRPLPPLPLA

[2] = biological target: Fc-GPVI-nt (immunoadhesin: extracellular domain of human GPVI fused via Gly-Gly-Arg to human IgG Fc, dimer) (human); experiment: competition ELISA, immobilized collagen as competitor
Chain of Fc-GPVI-nt (immunoadhesin: extracellular domain of human GPVI fused via Gly-Gly-Arg to human IgG Fc, dimer) (human) (chain, as listed by the source limits assumed): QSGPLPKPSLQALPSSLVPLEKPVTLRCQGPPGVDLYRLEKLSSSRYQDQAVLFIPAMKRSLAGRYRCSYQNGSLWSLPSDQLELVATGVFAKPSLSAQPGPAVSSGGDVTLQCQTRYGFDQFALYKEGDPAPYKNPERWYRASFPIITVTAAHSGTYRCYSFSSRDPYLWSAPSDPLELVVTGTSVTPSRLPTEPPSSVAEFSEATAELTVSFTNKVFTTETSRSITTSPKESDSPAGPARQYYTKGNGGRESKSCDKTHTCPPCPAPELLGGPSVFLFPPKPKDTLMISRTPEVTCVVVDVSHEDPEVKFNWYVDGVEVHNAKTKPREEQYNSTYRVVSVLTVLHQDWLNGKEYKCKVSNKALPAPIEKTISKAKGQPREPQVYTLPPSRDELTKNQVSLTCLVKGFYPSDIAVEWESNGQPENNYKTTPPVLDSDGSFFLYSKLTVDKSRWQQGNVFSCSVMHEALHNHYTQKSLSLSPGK

Substance: anti-rat-HRP (Sigma A9037) (antibody)
- LU (Light Units) (peptide 7 (human)): 239 LU
- LU (Light Units) (peptide 117 (human)): 377 LU
- LU (Light Units) (peptide 118 (human)): 354 LU

Substance: monoclonal antibody anti GPVI (JAQ1)
- ATP release [1]: 1.09 nM ATP
- platelet aggregation of mouse platelet-rich plasma after stimulation with 2 µg collagen/ml [1]: 2% and 1.5%

Substance: soluble collagen (solubilized fibrillar collagen) (ligand)
- concentration required to reduce Fc-GPVI-nt binding by more than 50% [2]: 100 µg/mL
